Substitutions are numbered along the chain they refer to.
B1: Fab fragment of antibody 15011 (Fab, V domains shown, not shown: a dimerising Fc or GST)
VH: EVQLLESGGGLVQPGGSLRLSCAASGFDFRSYAMMWVRQAPGKGLEWVGGINGEVGGSNTYYAPAVKGRATISRDNSKNTLYLQMNSLRAEDTAVYYCVKGAGACGICNDDIDAWGQGTLVTVSS
VL: SYELTQDPAVSVALGQTVRITCSGAGSYAGSYYYGWHQQKPGQAPVTVIYDNDKRPSNIPDRFSGSSSGNTASLTITGAQAEDEADYYCGSTNDNDDGGLFGSGTKVTVLG
notes: monomeric Fab made by GingisKHAN digestion of the IgG1
B2: Fab fragment of antibody 15572 (Fab, V domains shown, not shown: a dimerising Fc or GST)
VH: QLQLQESGPGLVKPSETLSLTCTVSGDSISSSSYYWGWIRQPPGKGLEWIGSIFYSGNTYYNPSLKSRVTISVDTSKNQFSLKLSSVTAADTAVYYCAREDDFLTDYYGAFDIWGQGTMVTVSS
VL: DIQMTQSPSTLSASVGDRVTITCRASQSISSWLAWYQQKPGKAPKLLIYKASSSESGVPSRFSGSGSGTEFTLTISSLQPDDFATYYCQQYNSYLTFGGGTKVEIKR
notes: as for B1
B3: Fab fragment of antibody 15532 (Fab, V domains shown, not shown: a dimerising Fc or GST)
VH: QVQLQQWGAGLLRPSETLSLTCAVYGESFSGYYWNWIRQPPGKGLEWIGEINHSGSTNYNPSLKSRVTISVDTSKTQFSLKLSSVTAADTAVYYCARGWDLLDWNDYWNEYWGQGTLVTVSS
VL: EIVLTQSPATLSLSPGERATLSCRASQSVSSYLAWYQQKPGQAPRLLIYDASNRATGIPARFSGSGSGTDFTLTISSLEPEDFAVYYCQQRSNWPLTFGGGTKVEIKR
notes: as for B1
B4: Fab fragment of antibody 15431 (Fab, V domains shown, not shown: a dimerising Fc or GST)
VH: QVQLQQSGPGLVKPSQTLSLTCAISGDSVSSNSAAWNWIRQSPSRGLEWLGRTYYRSKWYNDYAVSVKSRITINPDTSKNQFSLQLNSVTPEDTAVYYCARDDDWNDFDYWGQGTLVTVSS
VL: B3 VL
notes: as for B1

Experiments:
Test in all cases: SPR, Fab over captured mutant LAG-3-Fc;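 also: fc fusion variants captured on anti-human IgG Fc sensor, Fab injected with association then dissociation phases, KD obtained from Langmuir one-to-one fit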
[1] = molecular target: T1, human LAG-3 domain 1-2 Fc fusion, point mutation #53 L109A (human, UniProt P18627 23-266)
T1 construct: not shown: human IgG1 Fc, AA P101-K330
T1 sequence: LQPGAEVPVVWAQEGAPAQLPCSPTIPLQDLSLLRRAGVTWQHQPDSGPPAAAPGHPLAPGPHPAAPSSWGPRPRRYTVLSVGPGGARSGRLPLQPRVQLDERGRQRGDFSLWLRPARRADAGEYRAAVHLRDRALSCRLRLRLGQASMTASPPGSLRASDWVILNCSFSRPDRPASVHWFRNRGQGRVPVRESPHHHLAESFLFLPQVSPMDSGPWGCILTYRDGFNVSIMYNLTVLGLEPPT

[2] = molecular target: T2, human LAG-3 domain 1-2 Fc fusion, point mutation #50 P106A (human, UniProt P18627 23-266)
T2 construct: not shown: human IgG1 Fc, AA P101-K330
T2 sequence: T1 sequence with P84A, A87L

[3] = molecular target: T3, human LAG-3 domain 1-2 Fc fusion, point mutation #2 Q41A (human, UniProt P18627 23-266)
T3 construct: not shown: human IgG1 Fc, AA P101-K330
T3 sequence: T1 sequence with Q19A, A87L

[4] = molecular target: T4, human LAG-3 domain 1-2 Fc fusion, point mutation #45 R98A (human, UniProt P18627 23-266)
T4 construct: not shown: human IgG1 Fc, AA P101-K330
T4 sequence: T1 sequence with R76A, A87L

[5] = molecular target: T5, human LAG-3 domain 1-2 Fc fusion, point mutation #35 A88S (human, UniProt P18627 23-266)
T5 construct: not shown: human IgG1 Fc, AA P101-K330
T5 sequence: T1 sequence with A66S, A87L

[6] = molecular target: T6, human LAG-3 domain 1-2 Fc fusion, point mutation #15 Q64A (human, UniProt P18627 23-266)
T6 construct: not shown: human IgG1 Fc, AA P101-K330
T6 sequence: T1 sequence with Q42A, A87L

[7] = molecular target: T7, human LAG-3 domain 1-2 Fc fusion, point mutation #26 P79A (human, UniProt P18627 23-266)
T7 construct: not shown: human IgG1 Fc, AA P101-K330
T7 sequence: T1 sequence with P57A, A87L

[8] = molecular target: T8, human LAG-3 domain 1-2 Fc fusion, point mutation #23 P76A (human, UniProt P18627 23-266)
T8 construct: not shown: human IgG1 Fc, AA P101-K330
T8 sequence: T1 sequence with P54A, A87L

[9] = molecular target: T9, human LAG-3 domain 1-2 Fc fusion, point mutation #21 A74S (human, UniProt P18627 23-266)
T9 construct: not shown: human IgG1 Fc, AA P101-K330
T9 sequence: T1 sequence with A52S, A87L

Binder | KD mutant/KD wild type [1] [fold] | KD mutant/KD wild type [2] [fold] | KD mutant/KD wild type [3] [fold] | KD mutant/KD wild type [4] [fold] | KD mutant/KD wild type [5] [fold] | KD mutant/KD wild type [6] [fold] | KD mutant/KD wild type [7] [fold] | KD mutant/KD wild type [8] [fold] | KD mutant/KD wild type [9] [fold] | binding result [2] | binding result [3] | binding result [6] | binding result [4]
B1 | 84.2 | 4.6 | 0.7 | 1.2 | 0.9 | 0.6 | 0.6 | 0.8 | 0.8 | – | – | – | –
B2 | 1 | – | – | 0.9 | 0.6 | – | 0.4 | 0.6 | 0.7 | no binding (tested: 300 nM) | no binding (tested: 300 nM) | no binding (tested: 300 nM) | –
B3 | 1.1 | 2.7 | 3.4 | 1.6 | 3.7 | 2.9 | 0.9 | 1 | 1 | – | – | – | –
B4 | 1 | – | – | – | 0.6 | – | 0.4 | 0.7 | 0.8 | no binding (tested: 300 nM) | no binding (tested: 300 nM) | no binding (tested: 300 nM) | no binding (tested: 300 nM)
